Assay results as given in US20220195063A1 (BYONDIS B V, published 2022).

T1: cynomolgus SIRPα expressed on cells (cynomolgus monkey, UniProt A0A2K5VYQ9 31-507)
T1 construct: whole, on cells; also called ExpiCHO-S (cySIRPα)
T1 sequence: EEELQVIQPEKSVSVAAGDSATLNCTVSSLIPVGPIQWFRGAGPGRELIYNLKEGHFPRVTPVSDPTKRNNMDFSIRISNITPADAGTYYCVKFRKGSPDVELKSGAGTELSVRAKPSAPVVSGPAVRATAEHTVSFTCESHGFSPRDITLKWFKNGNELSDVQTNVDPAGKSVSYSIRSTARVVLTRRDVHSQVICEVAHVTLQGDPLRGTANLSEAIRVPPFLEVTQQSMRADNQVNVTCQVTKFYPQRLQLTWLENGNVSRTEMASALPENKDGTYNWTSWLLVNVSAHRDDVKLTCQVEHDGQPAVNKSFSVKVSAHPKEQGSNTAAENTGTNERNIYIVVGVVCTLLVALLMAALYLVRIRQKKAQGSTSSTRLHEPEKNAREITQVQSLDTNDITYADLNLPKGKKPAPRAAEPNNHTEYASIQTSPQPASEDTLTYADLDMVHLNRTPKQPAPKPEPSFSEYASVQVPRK

T2: cynomolgus SIRPα (cySIRPα), protein antigen (cynomolgus monkey, UniProt A0A2K5VYQ9 31-369)
T2 construct: Coated on the plate in ELISA
T2 sequence: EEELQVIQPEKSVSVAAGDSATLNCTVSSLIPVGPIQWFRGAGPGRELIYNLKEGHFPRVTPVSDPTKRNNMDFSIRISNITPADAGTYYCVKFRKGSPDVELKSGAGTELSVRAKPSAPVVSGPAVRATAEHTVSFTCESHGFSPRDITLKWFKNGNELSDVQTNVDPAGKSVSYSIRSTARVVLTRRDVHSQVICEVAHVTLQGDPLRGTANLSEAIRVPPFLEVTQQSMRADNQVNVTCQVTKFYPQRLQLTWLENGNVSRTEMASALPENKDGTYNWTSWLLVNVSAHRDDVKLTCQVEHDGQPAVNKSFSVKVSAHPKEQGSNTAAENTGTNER


Columns and labels:
[1] = molecular target: human SIRPαBIT expressed on cells (human) (UniProt P78324); experiment: flow cytometry, ExpiCHO-S cells
[2] = molecular target: T3, human SIRPα1 (huSIRPα1), protein antigen (human, UniProt P78324 31-370, limits assumed, biotinylated in the SPR assay); experiment: SPR, biotinylated antigen captured, 25 C
T3 construct: Coated on the plate in ELISA, biotinylated and captured in SPR; also called v2
Description: (§1) Surface Plasmon Resonance (SPR) assay: Affinity analysis was performed by single cycle kinetics analysis on a Surface Plasmon Resonance apparatus (Biacore T200 system, GE Life Sciences) at 25° C. Biotinylated SIRP antigens were captured on the surface of a chip suitable for biotinylated molecules (Sensor Chip CAP, GE Life Sciences) by injecting 5 μg/ml of the SIRP antigen in running buffer (10 mM HEPES buffer at pH 7.4 with 150 mM NaCl, 3 mM EDTA and 0.005% v/v polyoxyethylene (20) sorbitan monolaurate (Surfactant P20) for 60 sec at 10 μL/min after injection of a streptavidin conjugate (20× diluted biotin CAPture reagent, GE Life Sciences) for 60 sec at 10 μl/min. Baseline stabilization was set at 1 min after which five increasing concentrations of an anti-SIRP antibody in running buffer (10 mM HEPES buffer at pH 7.4 with 150 mM NaCl, 3 mM EDTA and 0.005% v/v polyoxyethylene (20) sorbitan monolaurate) were injected. For each step an association time of 150 sec was used, followed by a dissociation time of 1200 sec at the highest concentration only, all at a flow rate of 30 μL/min. Regeneration was performed with 6 M guanidine-HCl, 0.25 M NaOH solution (60 sec with flow rate of 30 μL/min). Double blank subtraction was performed on the observed sensorgrams using a non anti-SIRP (blank) immobilized reference flow channel and running buffer injection. Sensorgrams were fitted with a 1:1 Langmuir model for all tested anti-SIRP antibodies. The kinetic parameters (kₐ, kd and KD) were calculated using the Biacore T200 evaluation software (v3.1).

human SIRPγ (huSIRPγ) [3] = molecular target: T4, human SIRPγ (huSIRPγ) (human, UniProt Q9P1W8 29-360, limits assumed, biotinylated in the SPR assay); experiment: SPR, biotinylated antigen captured, 25 C
T4 construct: Coated on the plate in ELISA, biotinylated and captured in SPR
Description: as §1

[4] = molecular target: human SIRPαBIT expressed on cells (human) (UniProt P78324); experiment: flow cytometry, U937 cells
[5] = molecular target: T1, cynomolgus SIRPα expressed on cells; experiment: flow cytometry, ExpiCHO-S cells
Excerpt: (§2) Flow Cytometry: U937 cells endogenously expressing human SIRPαBIT antigen and cells derived from a non-engineered subclone that has been screened and isolated from CHO-S Chinese hamster ovary cells (ExpiCHO-S) cells expressing human SIRPα₁, SIRPαBIT or cySIRPα antigen (100,000 cells/well in a 96-well plate) were washed three times with ice-cold FACS buffer (1×PBS (LONZA) containing 0.2% v/w BSA (Sigma-Aldrich, St. Louis, Mo.) and 0.02% v/w NaN₃ (Sigma-Aldrich), followed by the addition of a concentration range of each primary mAb (50 μL/well) diluted in ice-cold FACS buffer. After an incubation time of 30 min at 4° C., the cells were washed three times with ice-cold FACS buffer and 50 μL/well secondary mAb (AffiniPure F(ab′)₂ fragment Goat-anti-human IgG-APC, 1:6,000 dilution, Jackson Immuno Research) was added. After 30 min at 4° C., cells were washed twice and resuspended in 150 μL FACS buffer. Fluorescence intensities were determined by flow cytometry (BD FACSVerse, Franklin Lakes, N.J.) and indicated as the median fluorescence intensity (MFI-Median) for U937 cells and ExpiCHO-S cells. Curves were fitted by nonlinear regression using the sigmoidal dose-response equation with variable slope (four parameters) in GraphPad Prism (version 7.02 for Windows, GraphPad, San Diego, Calif.). EC₅₀ values were calculated as the concentration in μg/mL that gives a response half way between bottom and top of the curve, when using a 4-parameter logistic fit.

[6] = molecular target: T5, human SIRPα1 expressed on cells (human, UniProt P78324 31-504); experiment: flow cytometry, ExpiCHO-S cells
T5 construct: whole, on cells; also called ExpiCHO-S (huSIRPα1); CHO cells expressing huSIRPα1
Excerpt: as §2

[7] = molecular target: human SIRPαBIT (huSIRPαBIT), protein antigen (human) (UniProt P78324); experiment: SPR, biotinylated antigen captured, 25 C
human SIRPγ (huSIRPγ) [8] = molecular target: T4, human SIRPγ (huSIRPγ); experiment: ELISA, antigen coated; ELISA (Table 2); finite EC50, below the 100,000 ng/ml cap
Description: (§3) ELISA assay: Solutions of huSIRPα₁, huSIRPαBIT, huSIRPβ₁ᵥ₁, huSIRPβ₁ᵥ₂, huSIRPγ and cySIRPα in phosphate buffered saline (PBS) were each added to a multiple well black polystyrene plate for ELISA and allowed to adhere for 1 h at RT. Unbound protein was removed with three washing steps using standard washing buffer. Subsequently, blocking buffer was added to the wells. After 1 h incubation at RT, the wells were washed three times with standard washing buffer. The antibodies in buffer at various concentrations were added to the wells and incubated at RT for 1 h. Unbound antibodies were removed with three washing steps using standard washing buffer. Goat anti human IgG (Fab′)₂:horse radish peroxidase (HRP) in buffer was added to the wells and incubated at RT for 1 h. 3,3′,5,5′-Tetramethylbenzidine (TMB) was added and after sufficient colour development HCl was added. Absorbance was read at 450 nm/620 nm.

[9] = molecular target: human SIRPαBIT (huSIRPαBIT), protein antigen (human) (UniProt P78324); experiment: ELISA, antigen coated
[10] = molecular target: human SIRPβ1v1 (huSIRPβ1v1) (human) (UniProt O00241); experiment: ELISA, antigen coated
[11] = molecular target: T3, human SIRPα1 (huSIRPα1), protein antigen; experiment: ELISA, antigen coated
Description: as §3

[12] = molecular target: T6, human SIRPβ1v2 (huSIRPβ1v2) (human, UniProt Q5TFQ8 30-371); experiment: ELISA, antigen coated
T6 construct: Coated on the plate in ELISA; Only the Ensembl protein number is printed; also called huSIRPß1v2
Description: as §3

[13] = molecular target: T2, cynomolgus SIRPα (cySIRPα), protein …; experiment: ELISA, antigen coated
Description: as §3

T5 sequence (P78324 other isoform, or with tags, fused parts or gaps limits assumed): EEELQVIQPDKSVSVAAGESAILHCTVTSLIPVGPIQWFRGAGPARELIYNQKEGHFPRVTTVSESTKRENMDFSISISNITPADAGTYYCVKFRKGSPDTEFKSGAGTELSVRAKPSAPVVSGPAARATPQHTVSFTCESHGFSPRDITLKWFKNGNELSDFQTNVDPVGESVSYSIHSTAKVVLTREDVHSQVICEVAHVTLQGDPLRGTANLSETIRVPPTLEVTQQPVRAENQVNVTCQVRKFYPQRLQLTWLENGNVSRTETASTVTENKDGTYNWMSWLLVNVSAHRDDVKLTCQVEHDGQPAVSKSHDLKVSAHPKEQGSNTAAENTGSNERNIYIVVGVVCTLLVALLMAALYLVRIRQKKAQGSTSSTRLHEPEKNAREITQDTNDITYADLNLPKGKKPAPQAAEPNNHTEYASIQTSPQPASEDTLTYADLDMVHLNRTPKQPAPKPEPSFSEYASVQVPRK
Sequence of human SIRPαBIT (huSIRPαBIT), protein antigen (human) (P78324 31-370): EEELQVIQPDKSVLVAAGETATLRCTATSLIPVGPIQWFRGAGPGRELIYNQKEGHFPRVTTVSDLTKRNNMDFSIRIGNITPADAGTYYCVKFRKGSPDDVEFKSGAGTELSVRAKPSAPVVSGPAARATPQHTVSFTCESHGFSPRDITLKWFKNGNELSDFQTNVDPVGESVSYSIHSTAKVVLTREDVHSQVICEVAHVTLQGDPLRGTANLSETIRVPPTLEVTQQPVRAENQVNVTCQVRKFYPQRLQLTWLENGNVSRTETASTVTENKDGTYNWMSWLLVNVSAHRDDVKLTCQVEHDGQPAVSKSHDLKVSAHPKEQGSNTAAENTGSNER
T4 sequence (Q9P1W8 29-360 limits assumed): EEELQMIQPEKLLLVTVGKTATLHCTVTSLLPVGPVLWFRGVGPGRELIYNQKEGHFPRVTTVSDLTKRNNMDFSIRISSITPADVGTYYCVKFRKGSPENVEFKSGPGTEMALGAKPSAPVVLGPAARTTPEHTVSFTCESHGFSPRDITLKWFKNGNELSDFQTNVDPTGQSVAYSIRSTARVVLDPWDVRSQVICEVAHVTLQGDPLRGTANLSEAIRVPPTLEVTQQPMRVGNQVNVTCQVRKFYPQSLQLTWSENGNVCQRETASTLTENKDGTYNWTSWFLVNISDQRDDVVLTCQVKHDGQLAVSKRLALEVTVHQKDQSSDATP
T3 sequence (P78324 other isoform, or with tags, fused parts or gaps limits assumed): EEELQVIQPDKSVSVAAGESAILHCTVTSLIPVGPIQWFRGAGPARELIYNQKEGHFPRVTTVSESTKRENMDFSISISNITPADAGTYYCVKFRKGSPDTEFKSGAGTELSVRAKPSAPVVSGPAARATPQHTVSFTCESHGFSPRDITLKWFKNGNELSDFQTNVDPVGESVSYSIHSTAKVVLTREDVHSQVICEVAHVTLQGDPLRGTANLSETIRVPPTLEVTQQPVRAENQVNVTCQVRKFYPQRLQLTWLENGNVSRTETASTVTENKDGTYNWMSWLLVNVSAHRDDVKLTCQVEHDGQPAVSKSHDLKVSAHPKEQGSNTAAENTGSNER
Sequence of human SIRPαBIT expressed on cells (human) (P78324 31-504): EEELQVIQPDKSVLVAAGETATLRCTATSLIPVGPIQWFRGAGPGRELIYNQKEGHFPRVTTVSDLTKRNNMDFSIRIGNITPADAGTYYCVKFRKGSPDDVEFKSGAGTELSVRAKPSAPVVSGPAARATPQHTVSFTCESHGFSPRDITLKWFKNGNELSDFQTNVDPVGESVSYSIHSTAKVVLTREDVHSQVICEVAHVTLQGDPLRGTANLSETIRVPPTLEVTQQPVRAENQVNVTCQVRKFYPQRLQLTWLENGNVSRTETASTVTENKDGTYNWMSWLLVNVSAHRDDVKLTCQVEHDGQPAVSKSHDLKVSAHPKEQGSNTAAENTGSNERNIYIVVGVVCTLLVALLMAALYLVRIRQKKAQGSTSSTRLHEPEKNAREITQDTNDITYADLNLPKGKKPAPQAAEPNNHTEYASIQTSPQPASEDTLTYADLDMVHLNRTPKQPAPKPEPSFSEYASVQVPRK
Sequence of human SIRPβ1v1 (huSIRPβ1v1) (human) (O00241 30-371): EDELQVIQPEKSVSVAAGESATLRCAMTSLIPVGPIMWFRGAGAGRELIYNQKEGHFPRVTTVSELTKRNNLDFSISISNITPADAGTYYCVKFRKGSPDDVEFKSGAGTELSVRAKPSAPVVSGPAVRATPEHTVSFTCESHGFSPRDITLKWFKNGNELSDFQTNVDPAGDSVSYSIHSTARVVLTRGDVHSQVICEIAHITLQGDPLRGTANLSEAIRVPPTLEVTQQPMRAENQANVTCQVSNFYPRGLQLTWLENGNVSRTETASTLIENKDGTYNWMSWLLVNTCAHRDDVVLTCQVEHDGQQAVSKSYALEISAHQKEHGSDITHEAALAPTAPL
T6 sequence (Q5TFQ8 30-371 limits assumed): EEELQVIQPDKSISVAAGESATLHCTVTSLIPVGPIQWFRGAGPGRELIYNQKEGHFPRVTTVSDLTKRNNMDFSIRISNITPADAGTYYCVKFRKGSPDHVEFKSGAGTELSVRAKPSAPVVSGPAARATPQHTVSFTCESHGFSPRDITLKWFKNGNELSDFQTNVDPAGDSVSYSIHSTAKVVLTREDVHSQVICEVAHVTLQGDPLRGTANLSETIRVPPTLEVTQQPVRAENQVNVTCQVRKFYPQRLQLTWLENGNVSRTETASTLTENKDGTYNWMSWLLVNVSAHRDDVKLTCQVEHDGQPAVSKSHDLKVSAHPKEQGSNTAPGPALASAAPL

Binder | EC50 [1] [µg/mL] | Kd [2] [nM] | binding result (human SIRPγ (huSIRPγ) [3]) | EC50 [4] [µg/mL] | EC50 [5] [µg/mL] | EC50 [6] [µg/mL] | Kd [7] [nM] | EC50 (human SIRPγ (huSIRPγ) [8]) [µg/mL] | EC50 [9] [µg/mL] | EC50 [10] [µg/mL] | EC50 [11] [µg/mL] | EC50 [12] [µg/mL] | EC50 [13] [µg/mL]
anti-SIRPα antibody 10 humanized (antibody, human IgG1, kappa, L234A L235A, V domains shown, Humanized, human IgG1 LALA / kappa) VH: KVEESGGGLVQPGGSLRLSCAASGFSLSSYVMGWVRQAPGKGLEWVSIISSSGSPYYASWVNGRFTISKDNSEGMVYLQMNSLRAEDTAVYYCARVGPLGVDYFNIWGQGTTVTVSS VL: DIVMTQSPDSLAVSLGERATINCQAGQSINSYLAWYQQKPGQPPKLLIYYASTLESGVPDRFSGSGSGTDFTLTISSLQAEDVAVYYCQSWHYISRSYAFGGGTKLEIKR | 0.2 | 3.2 | no binding | 0.17 | 0.27 | 0.38 | < 0.01 | – | – | – | – | – | –
anti-SIRPα antibody 3 (antibody, human IgG1, kappa, L234A L235A, V domains shown, Rabbit variable regions on human IgG1 LALA / kappa) VH: QSVEESGGRLVTPGTPLTLACTVSGFSLISYYISWVRQAPEKGLEYIGIINIGGGASYASWAKGRFTISKTSTTVDLKITSPTPEDTATYFCAMSYGMDTGAFNIWGPGTLVTVSL VL: AQVLTQTPASVSAAVGGTVTISCQSSESVYKNNFLSWYQQKPGKPPKLLIYGASTLASGVPSRFKGSGSGTQFTLTISDLESDDAATYFCQGGYRTDIYPFGGGTEVVVKR | – | – | – | 0.22 | – | – | – | 5.22 | 0.024 | > 100 | 0.015 | 0.089 | 0.036
anti-SIRPα antibody 11 humanized (antibody, human IgG1, kappa, L234A L235A, V domains shown, Humanized, human IgG1 LALA / kappa) VH: EVKVEESGGGLVQPGGSLRLSCAASGFSLSSYVMGWVRQAPGKGLEWVSIISSSGSPYYASWVNGRFTISKTSTTMDLQMNSLRAEDTAVYYCARVGPLGVDYFNIWGQGTTVTVSS VL: DIQMTQSPSSLSASVGDRVTITCQAGQSINSYLAWYQQKPGKVPKLLIYYASTLESGVPSRFSGSGSGTDFTLTISSLQPEDVATYYCQSWHYISRSYAFGQGTKVEIKR | 0.3 | 41 | no binding | 0.13 | 0.32 | 1.05 | 0.14 | – | – | – | – | – | –
anti-SIRPα antibody 13 humanized (antibody, human IgG1, V domains shown, Humanized, human IgG1 LALA / kappa) VH: RQLVESGGGLVQPGGSLRLSCTASGFSLSSHGISWVRQAPGKGLEYIGTIGTGVITYFASWAKGRFTGSKTSSTAYMELSSLRSEDTAVYFCARGSAWNDPFDPWGQGTLVTVSS VL: AIQMTQSPSSLSASVGDRVTITCQASQSVYGNNDLAWYQQKPGKAPKLLIYLASTLATGVPSRFSGSGSGTDFTLTISSLQPEDFATYYCLGGGDDEADNVFGGGTKVEIKR | 0.23 | < 0.01 | no binding | 0.14 | 0.44 | 0.36 | 0.012 | – | – | – | – | – | –
anti-SIRPα antibody 14 humanized (antibody, human IgG1, V domains shown, Humanized, human IgG1 LALA / kappa) VH: RQLVESGGGLVQPGGSLRLSCTASGFSLSSHGISWVRQAPGKGLEYIGTIGTGVITYFASWAKGRFTGSKTSSTAYMELSSLRSEDTAVYFCARGSAWNDPFDPWGQGTLVTVSS VL: DIEMTQSPSSVSASVGDRVTLTCQASQSVYGNNDLAWYQQKPGQAPKLLIYLASTLATGVPSRFSGSGSGTDFTLTISSLQPEDFATYYCLGGGDDEADNVFGGGTKVEIKR | 0.29 | < 0.01 | no binding | 0.22 | 0.38 | 0.37 | 0.089 | – | – | – | – | – | –
